Experimental data reported in patent publication US7166475B2, “Compositions and methods for monitoring the modification state of a pair of polypeptides” (Cyclacel Ltd., priority 1999, dated 2007).
Residue numbers refer to the chain shown, from its start. No end group written: not given here. rhodamine = not defined here

Columns and labels:
[1] = format: physicochemical; settings: 10 μM peptide, pH 7.0, 20° C.
Procedure: The circular dichroism (measured in units of ellipticity) of proteins at 222 nm provides a measure of the amount of a-helix present in the structure, with a large, negative ellipticity indicting a high level of helicity. The coiled-coil has a distinctive a-helical CD spectrum with minima at 222 nm and 208 nm (O'Shea et al., 1989, Science, 243: 538–542). The CD spectra of the unmodified Zip3 and its phosphorylated form (‘Zip3P’) are determined at a sample concentration of 10 μM in 150 mM KCB, 42.2 mM K2HPO4, 7.8 mM KH2PO4, pH 7.0 at 20° C.; spectra are recorded using a 1 mm pathlength cell in a Jasco J-715 spectropolarimeter with a Jasco PTC-348W Peltier temperature control unit. Peptide concentration is determined by tyrosine absorbance at 280 nm in 6M GuHCl. […] The effipticities of Zip3 and Zip3P at 222 nm with increasing temperature are measured. The steep portion of the sigmoid curve for Zip3 indicates the unfolding of the molecule. It is clear that this leucine zipper peptide begins to unfold at around 35° C. and is completely unfolded by 70° C. […]
The circular dichroism (measured in units of ellipticity) of proteins at 222 nm provides a measure of the amount of a-helix present in the structure, with a large, negative ellipticity indicting a high level of helicity. […] In all experiments described herein, peptide concentration is determined by tyrosine absorbance at 280 nm in 6M GnHCl.

chymotrypsin = assay: Time-course digestion with chymotrypsin, MALDI-TOF; format: biochemical
Procedure: A time-course digestion of Peptide A with chymotrypsin is analysed by MALDI-TOF mass spectrometry. On the protein matrix (MS, denoted SA on each spectrogram) the Peptide A substrate as 4245 Da is evident. […] The C-terminal fragment appears to be cleaved at a second site (after L-26) generating a product of 1100 Da, although the final peptide fragment of about 990 Da is not observed in the MS.

peptide D = assay: FRET of fluorescein-labelled peptides N and C with rhodamine-labelled peptide D; format: binding; settings: no peptidase
carboxypeptidase = assay: Carboxypeptidase digestion, FRET; format: biochemical
aminopeptidase = assay: Aminopeptidase digestion, FRET; format: biochemical
[2] = system: Ca^2+/Calmodulin-dependent Protein Kinase (CaMK-II); assay: Timecourse of phosphorylation by CaMK-II (32P-ATP); format: biochemical; settings: 10% crude CaMK-II, 0.5 mM Ca^2+, 0.037 mg/ml calmodulin, 0.2 mM ATP
Procedure: A set of timecourses of phosphorylation is performed on Zip4S using PKA and Ca^2+/Calmodulin-dependent Protein Kinase (CaMK-II), together with positive and negative controls for CaMK-II (these controls confirm that the preparation of CaMK-II posesses the expected characteristics of that enzyme). PKA phosphorylation is performed in 50 mM histidine/HCl (pH 7.0), 5 mM MgSO4, 5 mM NaF, 0.05 mM EGTA, 120 mM kcb with 0.2 mM ATP (39.72 cpm/pmol ^32P-ATP) and 0.25 μM PKA. CaMK-II phosphorylation is performed in 50 mM histidine/HCl (pH 7.0), 5 mM MgSO4, 5 mM NaF, 120 mM kcb, 0.5 mM Ca^2+, 0.037 mg/ml calmodulin with 0.2 mM ATP (39.72 cpm/pmol ^32P-ATP) and 10% crude CaMK-II. In the Ca^2+-free experiment, Ca^2+ is replaced by 0.05 mM EGTA. […] Such specificity of a modification site in a polypeptide according to the invention is a clear advantage for use of the invention in an intracellular assay, or for measuring the activity of a particular polypeptide modifying agent in a complex mixture such as a cell lysate.

PKA = PKA (Homo sapiens, UniProt P17612); assay: Timecourse of phosphorylation by PKA (32P-ATP); format: biochemical; settings: 0.2 mM ATP
Procedure: A timecourse of phosphorylation of these peptides by PKA is run in 50 mM histidine/HCl (pH 7.0), 5 mM MgSO4, 5 mM NaF, 0.05 mM EGTA, 120 mM kcb with 0.2 mM ATP (30.9 cpm/pmol ^32P-ATP) and 0.5 μM PKA. […] Zip4T is also phosphorylated, at a slower rate, with full phosphorylation achieved in 30 minutes in this assay. In this assay, the difference in cpm recovered between the Zip4 peptides and PL919Y is due to the difference in recovery of these peptides on P81 paper. The plateau indicates full phosphorylation.
A set of timecourses of phosphorylation is performed on Zip4S using PKA and Ca^2+/Calmodulin-dependent Protein Kinase (CaMK-II), together with positive and negative controls for CaMK-II (these controls confirm that the preparation of CaMK-II posesses the expected characteristics of that enzyme). PKA phosphorylation is performed in 50 mM histidine/HCl (pH 7.0), 5 mM MgSO4, 5 mM NaF, 0.05 mM EGTA, 120 mM kcb with 0.2 mM ATP (39.72 cpm/pmol ^32P-ATP) and 0.25 μM PKA. CaMK-II phosphorylation is performed in 50 mM histidine/HCl (pH 7.0), 5 mM MgSO4, 5 mM NaF, 120 mM kcb, 0.5 mM Ca^2+, 0.037 mg/ml calmodulin with 0.2 mM ATP (39.72 cpm/pmol ^32P-ATP) and 10% crude CaMK-II. In the Ca^2+-free experiment, Ca^2+ is replaced by 0.05 mM EGTA. […]

[3] = biological target: T1, Pep 1F (Pep 1 peptide labelled with fluorescein) (not fully specified; fluorescein label; the lysine residue is inserted for labelling purposes); assay: FRET in solution, 50 µM Pep 1F and 50 µM Pep 2R, 37 °C
T1 construct: Unphosphorylated
T1 peptide: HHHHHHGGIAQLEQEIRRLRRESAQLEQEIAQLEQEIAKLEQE
Procedure: Fluorescence emission of fluorescein is measured at 520 nm by exciting at appropriate wavelength (450 nm). Pep 2R (Pep 2 labelled with rhodamine) at concentrations equal to that of Pep 1F (50 μM) is added and the fluorescence emission of Pep 1F and Pep 2R are monitored.

[4] = biological target: T2, Peptide 4 (SEQ ID NO. 56) (fluorescein label, by the procedure of Example 10 (not restated)); assay: FRET, procedure of Example 10
T2 construct: Immobilised peptide of the caspase reporter; also called Peptides 4
T2 peptide: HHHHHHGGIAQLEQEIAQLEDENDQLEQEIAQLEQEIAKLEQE

Pep 1 = biological target: T3, Pep 1; assay: statement in Example 3
T3 construct: Unphosphorylated; immobilised by its His tag on a Ni-NTA sensor chip in the Biacore assay
T3 peptide: T1 peptide

[5] = biological target: T4, Peptide N, fluorescein-labelled (fluorescein label at the K residue); assay: FRET, peptide N immobilised
T4 peptide: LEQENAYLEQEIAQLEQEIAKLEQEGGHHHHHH

[6] = biological target: T5, Peptide C, fluorescein-labelled (fluorescein label (site said to be 'the C and K residues as before', but the entry has neither Cys nor Lys)); assay: FRET, peptide C immobilised
T5 peptide: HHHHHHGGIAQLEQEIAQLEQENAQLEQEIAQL

[7] = biological target: T6, Peptide 3 (SEQ ID NO. 54), labelled with fluorescein (fluorescein at the lysine residue); assay: FRET, Peptide 3 immobilised
T6 construct: also called peptides 3
T6 peptide: T2 peptide with D21Q, D24R

Zip4SF = biological target: T7, Zip4SF (fluorescein label (on the cysteine residue, by analogy with Zip3F)); assay: FRET in solution
T7 construct: read as Zip4S with fluorescein, like Zip3F; also called Zip4S labelled with fluorescein
T7 peptide: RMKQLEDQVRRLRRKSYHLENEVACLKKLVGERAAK

Molecule: HHHHHHGGIAQLEQEIAQLEQENAYLEQEIAQLEQEIAKLEQE [Peptide A]
- CD spectrum (structure indicated) [1]: classic coiled-coil
- digestion by chymotrypsin (chymotrypsin): degraded completely over two hours

Molecule: LEQENAYLEQEIAQLEQEIAKLEQEGGHHHHHH [Peptide N]
- FRET in the presence of rhodamine-labelled peptide D (peptide D): FRET is observed
- FRET of pair with peptide D after addition of carboxypeptidase (carboxypeptidase): not affected
- FRET of pair with peptide D after addition of aminopeptidase (aminopeptidase): complete loss of FRET

Molecule: R MKQLEDQ VRRLRRK SYHLENE VACLKKL VGERAAK (RMKQLEDQVRRLRRKSYHLENEVACLKKLVGERAAK) [Zip4S]
- phosphorylation by CaMK-II [2]: unable to phosphorylate
- extent of phosphorylation by PKA (PKA; 0.25 μM PKA): complete phosphorylation
- phosphorylation by PKA (substrate quality, rate) (PKA; 0.5 μM PKA, compared with known substrate PL919Y): good substrate

Molecule: IAQLKQEIAQLKQKNAQLKQKIAQLKQKIC(rhodamine)QLKQK (reading uncertain) [Pep 2R (Pep 2 peptide labelled with rhodamine)]
- binding result [3]: binds

Molecule: IAQLKQKIAQLKQKNAQLKQKIAQLKQKICQLKQK (also: rhodamine label by procedure, site not given here) [Peptide 44 (SEQ ID NO. 57)]
- binding result [4]: binds

Molecule: IAQLKQEIAQLKQKNAQLKQKIAQLKQKICQLKQK [Pep 2]
- binding result (Pep 1): binds

Molecule: IAQLKQKIAQLKQKNAQLKQKIAQLKQKIC(rhodamine)QLKQK (reading uncertain) [Peptide D, rhodamine-labelled]
- binding result [5]: binds
- binding result [6]: binds

Molecule: IAQLKQKIAQLKQKNAQLKQKIAQLKQKIC(rhodamine)QLKQK (reading uncertain) [peptide 33 (SEQ ID NO. 55), labelled with rhodamine]
- binding result [7]: binds

B1: Zip4SR (peptide)
peptide: T7 peptide
modifications: also: rhodamine label, read from undefined name by analogy with Zip3R
notes: read as Zip4S with rhodamine, like Zip3R; also called Zip4S labelled with rhodamine
- binding result (Zip4SF): binds
